Target: the molecule itself
Assay: time-resolved SAXS/diffraction

B1: RsaA_(Full-Length), the 98-kDa surface-layer protein (SLP) from Caulobacter crescentus (natural protein)
chain: MAYTTAQLVTAYTNANLGKAPDAATTLTLDAYATQTQTGGLSDAAALTNTLKLVNSTTAVAIQTYQFFTGVAPSAAGLDFLVDSTTNTNDLNDAYYSKFAQENRFINFSINLATGAGAGATAFAAAYTGVSYAQTVATAYDKIIGNAVATAAGVDVAAAVAFLSRQANIDYLTAFVRANTPFTAAADIDLAVKAALIGTILNAATVSGIGGYATATAAMINDLSDGALSTDNAAGVNLFTAYPSSGVSGSTLSLTTGTDTLTGTANNDTFVAGEVAGAATLTVGDTLSGGAGTDVLNWVQAAAVTALPTGVTISGIETMNVTSGAAITLNTSSGVTGLTALNTNTSGAAQTVTAGAGQNLTATTAAQAANNVAVDGGANVTVASTGVTSGTTTVGANSAASGTVSVSVANSSTTTTGAIAVTGGTAVTVAQTAGNAVNTTLTQADVTVTGNSSTTAVTVTQTAAATAGATVAGRVNGAVTITDSAAASATTAGKIATVTLGSFGAATIDSSALTTVNLSGTGTSLGIGRGALTATPTANTLTLNVNGLTTTGAITDSEAAADDGFTTINIAGSTASSTIASLVAADATTLNISGDARVTITSHTAAALTGITVTNSVGATLGAELATGLVFTGGAGADSILLGATTKAIVMGAGDDTVTVSSATLGAGGSVNGGDGTDVLVANVNGSSFSADPAFGGFETLRVAGAAAQGSHNANGFTALQLGATAGATTFTNVAVNVGLTVLAAPTGTTTVTLANATGTSDVFNLTLSSSAALAAGTVALAGVETVNIAATDTNTTAHVDTLTLQATSAKSIVVTGNAGLNLTNTGNTAVTSFDASAVTGTGSAVTFVSANTTVGEVVTIRGGAGADSLTGSATANDTIIGGAGADTLVYTGGTDTFTGGTGADIFDINAIGTSTAFVTITDAAVGDKLDLVGISTNGAIADGAFGAAVTLGAAATLAQYLDAAAAGDGSGTSVAKWFQFGGDTYVVVDSSAGATFVSGADAVIKLTGLVTLTTSAFATEVLTLA
binding result: binds
